Source: PMC5428041, “Dynamic equilibrium on DNA defines transcriptional regulation of a multidrug binding transcriptional repressor, LmrR” (Scientific Reports, 2017)

Biological target: T1, LmrR (Lactococcus lactis) (UniProt A2RI36)
T1 sequence: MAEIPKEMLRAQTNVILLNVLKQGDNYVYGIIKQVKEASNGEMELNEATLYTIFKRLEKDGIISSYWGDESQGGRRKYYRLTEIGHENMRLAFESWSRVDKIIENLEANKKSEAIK
Assay: NMR titration
Details: apo; apparent Kd per base pair; DNA is a fragment pool; 10 mM NaPi pH 6.8, 100 mM NaCl, 25 C (ITC; same buffer for NMR); 5% DMSO in riboflavin titrations

## sonicated E. coli genomic DNA
  Kd: 37 µM
